Data from patent publication US20200215180A1.

Experiments:
[1] = target: Hyperglycosylated dengue-1 exodomain (HX), insect (Tni) cell expressed (dengue virus serotype 1) (UniProt P27909); experiment: ELISA
[2] = target: Hyperglycosylated dengue-4 exodomain (HX), insect (Tni) cell expressed (dengue virus serotype 4) (UniProt P09866); experiment: ELISA
[3] = target: Hyperglycosylated exodomain D2 (from pCRO22), HEK293-expressed (dengue virus serotype 2) (UniProt P18356); experiment: ELISA
[4] = target: Hyperglycosylated exodomain D3 (from pCRO23), HEK293-expressed (dengue virus serotype 3) (UniProt Q6YMS4); experiment: ELISA
[5] = target: Hyperglycosylated exodomain D4 (from pCRO24), HEK293-expressed (dengue virus serotype 4) (UniProt P09866); experiment: ELISA
[6] = target: Hyperglycosylated exodomain D1 (from pCRO21), HEK293-expressed (dengue virus serotype 1) (UniProt P27909); experiment: ELISA
[7] = target: Hyperglycosylated exodomain Zika (from pCRO28), HEK293-expressed (Zika virus); experiment: ELISA
[8] = target: Hyperglycosylated dengue-3 exodomain (HX), insect (Tni) cell expressed (dengue virus serotype 3) (UniProt Q6YMS4); experiment: ELISA
[9] = target: Hyperglycosylated Zika exodomain (HX), insect (Tni) cell expressed (Zika virus); experiment: ELISA
[10] = target: Hyperglycosylated dengue-2 exodomain (HX), insect (Tni) cell expressed (dengue virus serotype 2) (UniProt P18356); experiment: ELISA
[11] = target: wild-type insect cell expressed Zika exodomain antigen (Zika virus); experiment: ELISA
VLPs = experiment: competition ELISA, 4G2 in solution phase at 10 micrograms per ml

| Substance | absorbance [1] [absorbance] | absorbance [2] [absorbance] | absorbance [3] [absorbance] | absorbance [4] [absorbance] | absorbance [5] [absorbance] | absorbance [6] [absorbance] | absorbance [7] [absorbance] | absorbance [8] [absorbance] | absorbance [9] [absorbance] | absorbance [10] [absorbance] | absorbance [11] [absorbance] | % inhibition (VLPs) [%] |
| --- | --- | --- | --- | --- | --- | --- | --- | --- | --- | --- | --- | --- |
| Aalto Bioreagents anti-Zika antibody AZ1176-0302156-Lot3889 | 0.2 | 0.1 | 0.1 | 0.1 | 0.1 | 0.1 | 3.1 | 0.3 | 2 | 0.1 | 1 | – |
| ZV48 anti-Zika neutralizing antibody (The Native Antigen Company MAB12124) | 0 | 0 | 0 | 0 | 0 | 0 | 1.2 | 0 | 1.1 | 0 | 1.1 | – |
| ZV67 anti-Zika neutralizing antibody (The Native Antigen Company MAB12125) | 0.1 | 0.1 | 0 | 0 | 0 | 0.1 | 1.1 | 0.1 | 1.5 | 0.1 | 1.2 | – |
| fusion-loop antibody 4G2 (The Native Antigen Company AbFLAVENV-4G2) | 0.1 | 0.1 | 0.1 | 0.1 | 0.1 | 0.1 | 0.1 | 0.1 | 0.1 | 0.1 | 0.9 | 80 |
| ZKA78 (antibody) | 0 | 0 | 0 | 0 | 0 | 0 | 0 | 0 | 0 | 0 | 1.4 | – |
| ZKA64 (antibody) | 0.2 | 0.1 | 0.1 | 0.1 | 0.1 | 0.1 | 0.9 | 0.2 | 0.7 | 0.2 | 0.8 | – |
